# ± gives the standard deviation of the averaged measurements.
# Experiment: total protein half-life in vivo (active degradation + dilution); higher = more stable protein
# [1] = E. coli NCM3722 delta-clpP delta-lon delta-hslV, growth: N-lim chemostat, doubling time 6 h
# [2] = E. coli NCM3722 delta-clpP, growth: N-lim chemostat, doubling time 6 h
# [3] = E. coli NCM3722 delta-lon, growth: N-lim chemostat, doubling time 6 h
# [4] = E. coli NCM3722 delta-smpB, growth: N-lim chemostat, doubling time 6 h
# [5] = wild type E. coli NCM3722, growth: C-lim chemostat, doubling time 3 h
# [6] = wild type E. coli NCM3722, growth: C-lim chemostat, doubling time 6 h
# [7] = wild type E. coli NCM3722, growth: C-lim chemostat, doubling time 12 h
# [8] = wild type E. coli NCM3722, growth: N-lim chemostat, doubling time 6 h
# [9] = wild type E. coli NCM3722, growth: N-lim chemostat, doubling time 12 h
# [10] = wild type E. coli NCM3722, growth: P-lim chemostat, doubling time 6 h
# [11] = wild type E. coli NCM3722, growth: P-lim chemostat, doubling time 12 h
# [12] = E. coli NCM3722 delta-hslV, growth: N-lim chemostat, doubling time 6 h
Sequence,total protein half-life in vivo [1],total protein half-life in vivo [2],total protein half-life in vivo [3],total protein half-life in vivo [4],total protein half-life in vivo [5],total protein half-life in vivo [6],total protein half-life in vivo [7],total protein half-life in vivo [8],total protein half-life in vivo [9],total protein half-life in vivo [10],total protein half-life in vivo [11],total protein half-life in vivo [12]
MTDQSHQCVIIGIAGASASGKSLIASTLYRELREQVGDEHIGVIPEDCYYKDQSHLSMEERVKTNYDHPSAMDHSLLLEHLQALKRGSAIDLPVYSYVEHTRMKETVTVEPKKVIILEGILLLTDARLRDELNFSIFVDTPLDICLMRRIKRDVNERGRSMDSVMAQYQKTVRPMFLQFIEPSKQYADIIVPRGGKNRIAIDILKAKISQFFE [P0A8F4],5.42 ± 0.4 h,4.6 ± 0.34 h,4.87 ± 1.3 h,4.376 ± 0.027 h,2.86 ± 0.035 h,5.074 ± 0.037 h,9.37 ± 0.41 h,4.36 ± 0.07 h,6.72 ± 0.17 h,5.11 ± 0.44 h,9.61 ± 2.1 h,
MTDVLLCVGNSMMGDDGAGPLLAEKCAAAPKGNWVVIDGGSAPENDIVAIRELRPTRLLIVDATDMGLNPGEIRIIDPDDIAEMFMMTTHNMPLNYLIDQLKEDIGEVIFLGIQPDIVGFYYPMTQPIKDAVETVYQRLEGWEGNGGFAQLAVEEE [P0AEV9],4.89 h,4.16 h,4.17 h,3.72 ± 0.15 h,3.29 ± 0.42 h,5.01 ± 0.2 h,8.74 h,4.6 h,6.23 h,,9.42 ± 0.22 h,3.67 ± 0.094 h
MTEHTSSYYAASANKYAPFDTLNESITCDVCVVGGGYTGLSSALHLAEAGFDVVVLEASRIGFGASGRNGGQLVNSYSRDIDVIEKSYGMDTARMLGSMMFEGGEIIRERIKRYQIDCDYRPGGLFVAMNDKQLATLEEQKENWERYGNKQLELLDANAIRREVASDRYTGALLDHSGGHIHPLNLAIGEADAIRLNGGRVYELSAVTQIQHTTPAVVRTAKGQVTAKYVIVAGNAYLGDKVEPELAKRSMPCGTQVITTERLSEDLARSLIPKNYCVEDCNYLLDYYRLTADNRLLYGGGVVYGARDPDDVERLVVPKLLKTFPQLKGVKIDYRWTGNFLLTLSRMPQFGRLDTNIYYMQGYSGHGVTCTHLAGRLIAELLRGDAERFDAFANLPHYPFPGGRTLRVPFTAMGAAYYSLRDRLGV,,6.23 h,3.84 ± 1.7 h,,0.265 h,6.7 h,4.55 h,1.81 h,6.25 ± 7.7 h,,,5.96 ± 0.34 h
MTEIYEQAKHSLQGEDFSSFNYLFAVNKLLSNPVSYDLGRDLIVRALDSRERFSEHTTILKNMVRKSGLFPYLKKEFTSLTPDDLRVLELYRTPFSDGYVFHSMQFHIFDLLKSGQNVVLSAPTSMGKSAIVDSLLGMGTLKRLVLVVPTVALADETRRRLQERFGDRYQIIHHSSQVCHSDQAVYVLTQERVNERDDIVDIDLFVIDEFYKLAFRQLKSGDIDHQDERVIELNIALSKLLKVSRQFYLTGPFVNSIRGLEKLGYPHTFVSTDFNTVALDVKTFGIKANDDKAKLKALGEIAHACVDATIIYCKSPTVAGLVARELIRLGHGTPTENPHVDWVSEEFDADWDYTVALRNGIGLHFGALPRALQQYTADQFNAGKLRFLLCTSTIIEGVNTIAKNVVIYDNRDGTRSIDKFTHGNIKGRAGRMGVHFVGKIFCLEEIPEDNLNQEVDIPLGIQGIDTPINLLASVQPDHLSEFSQDRFDEVFINDRVSIDLVKKHSYFRVEQFEMLQSMFEMMDDNEFSSLVFHWTPATNFLKTFAKIIARLVPHTFSRNGVPVKPTDVMIAKLAGYLSAESYSEYLKNQIDYARQWISEGEKRTLSIALNNDLKLITNTFGYTLPKVLSLMEDVVKHHAVKRGIRSKVDYTHVKLAFESFHLPPGVNALEEIGIPIQTLHRLVDLLEFSDEADVDELSQYLRDTQDIWSRSIGYVDQMFIRRALGIRRH,6.27 ± 1.3 h,,,,,,,,,,,
MTEMAKGSVTHQRLIALLSQEGADFRVVTHEAVGKCEAVSEIRGTALGQGAKALVCKVKGNGVNQHVLAILAADQQADLSQLASHIGGLRASLASPAEVDELTGCVFGAIPPFSFHPKLKLVADPLLFERFDEIAFNAGMLDKSVILKTADYLRIAQPELVNFRRTA,5.051 ± 0.048 h,7.68 h,5.17 ± 0.12 h,3.6 ± 0.12 h,3.19 ± 0.52 h,4.895 ± 0.03 h,8.13 ± 0.88 h,3.564 ± 0.0078 h,5.88 ± 0.3 h,4.71 ± 0.58 h,8.83 ± 0.85 h,3.84 ± 0.28 h
MTENIHKHRILILDFGSQYTQLVARRVRELGVYCELWAWDVTEAQIRDFNPSGIILSGGPESTTEENSPRAPQYVFEAGVPVFGVCYGMQTMAMQLGGHVEASNEREFGYAQVEVVNDSALVRGIEDALTADGKPLLDVWMSHGDKVTAIPSDFITVASTESCPFAIMANEEKRFYGVQFHPEVTHTRQGMRMLERFVRDICQCEALWTPAKIIDDAVARIREQVGDDKVILGLSGGVDSSVTAMLLHRAIGKNLTCVFVDNGLLRLNEAEQVLDMFGDHFGLNIVHVPAEDRFLSALAGENDPEAKRKIIGRVFVEVFDEEALKLEDVKWLAQGTIYPDVIESAASATGKAHVIKSHHNVGGLPKEMKMGLVEPLKELFKDEVRKIGLELGLPYDMLYRHPFPGPGLGVRVLGEVKKEYCDLLRRADAIFIEELRKADLYDKVSQAFTVFLPVRSVGVMGDGRKYDWVVSLRAVETIDFMTAHWAHLPYDFLGRVSNRIINEVNGISRVVYDISGKPPATIEWE,5.07 ± 0.67 h,4.31 ± 0.18 h,4.39 ± 0.049 h,4.28 ± 0.17 h,3.24 ± 0.23 h,5.93 ± 0.12 h,9.65 ± 0.23 h,4.17 ± 0.46 h,6.57 ± 0.082 h,6.09 ± 0.26 h,12.3 ± 0.98 h,4.02 ± 0.45 h
MTEQEKTSAVVEETREAVDTTSQPVATEKKSKNNTALILSAVAIAIALAAGIGLYGWGKQQAVNQTATSDALANQLTALQKAQESQKAELEGIIKQQAAQLKQANRQQETLAKQLDEVQQKVATISGSDAKTWLLAQADFLVKLAGRKLWSDQDVTTAAALLKSADASLADMNDPSLITVRRAITDDIASLSAVSQVDYDGIILKLNQLSNQVDNLRLADNDSDGSPMDSDGEELSSSISEWRINLQKSWQNFMDNFITIRRRDDTAVPLLAPNQDIYLRENIRSRLLVAAQAVPRHQEETYRQALENVSTWVRAYYDTDDATTKAFLDEVDQLSQQNISMDLPETLQSQAMLEKLMQTRVRNLLAQPAAGTTEAKPAPAPQADTPAAAPQGE,5.965 ± 0.022 h,6.63 ± 1.1 h,6.06 ± 0.28 h,6.54 ± 0.59 h,3.15 ± 0.072 h,5.98 ± 0.23 h,11.3 ± 1.5 h,6.09 ± 0.16 h,13.7 ± 0.83 h,6.17 ± 0.24 h,12.8 ± 1.5 h,6.31 ± 0.23 h
MTEQQISRTQAWLESLRPKTLPLAFAAIIVGTALAWWQGHFDPLVALLALITAGLLQILSNLANDYGDAVKGSDKPDRIGPLRGMQKGVITQQEMKRALIITVVLICLSGLALVAVACHTLADFVGFLILGGLSIIAAITYTVGNRPYGYIGLGDISVLVFFGWLSVMGSWYLQAHTLIPALILPATACGLLATAVLNINNLRDINSDRENGKNTLVVRLGEVNARRYHACLLMGSLVCLALFNLFSLHSLWGWLFLLAAPLLVKQARYVMREMDPVAMRPMLERTVKGALLTNLLFVLGIFLSQWAA,,5.652 ± 0.0067 h,,,,6.18 h,12.6 h,,,,,6.01 h

# Source: the supplement of paper PMC11246515
